The source of these data is patent publication US12269859B2, “Synthetic immune receptors and methods of use thereof” (Angeles Therapeutics, Inc., priority 2016, dated 2025).

The test system of the experiment is target antigen-expressing cell line. The experiment is described as follows: Jurkat NFAT-GFP assay, coculture with target cell lines expressing the respective target antigen (summary Table 10A). Also on record: key: The signs +/−, +, 2+ etc. after the name of the cell lines indicate the relative degree of positivity on the Jurkat-NFAT-GFP assay as measured by the % GFP positive cells; +: relative degree of positivity on the Jurkat-NFAT-GFP assay as measured by the % GFP positive cells; 2+: relative degree of positivity on the Jurkat-NFAT-GFP assay as measured by the % GFP positive cells. It is filed as cell-based, human. The method, boiled down:
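Read-out: % GFP+ cells by FACS. SIR-transduced, puromycin-selected Jurkat NFAT-GFP (IL-2 promoter reporter) cocultured ~4–18 h with target line, E:T ~1:2; parental cells as control; graded +/−, +, 2+ relative to parental.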

B1: 091616-Y01 (protein)
chain: MALPVTALLLPLALLLHAARPDIQMTQSPSSLSASVGDTVTITCQANGYLNWYQQRRGKAPKLLIYDGSKLERGVPSRFSGRRWGQEYNLTINNLQPEDIATYFCQVYEFVVPGTRLDLKRTVAAPLEEQKLISEEDLGSGEDLKNVFPPEVAVFEPSKAEIAHTQKATLVCLATGFYPDHVELSWWVNGKEVHSGVCTDPQPLKEQPALNDSRYCLSSRLRVSATFWQNPRNHFRCQVQFYGLSENDEWTQDRAKPVTQIVSAEAWGRADCGITSASYHQGVLSATILYEILLGKATLYAVLVSALVLMAMVKRKDSRGRAKRSGSGATNFSLLKQAGDVEENPGPTSMDWIWRILFLVGAATGAHSFEQVQLLQSGAAVTKPGASVRVSCEASGYNIRDYFIHWWRQAPGQGLQWVGWINPKTGQPNNPRQFQGRVSLTRHASWDFDTFSFYMDLKALRSDDTAVYFCARQRSDYWDFDVWGSGTQVTVSSASTKGPTREQKLISEEDGSGIQNPDPAVYQLRDSKSSDKSVCLFTDFDSQTNVSQSKDSDVYITDKCVLDMRSMDFKSNSAVAWSNKSDFACANAFNNSIIPEDTFFPSSDVPCDVKLVEKSFETDTNLNFQNLSVIGFRILLLKVAGFNLLMTLRLWSSRAKRSGSGVKQTLNFDLLKLAGDVESNPGPSRGHMTEYKPTVRLATRDDVPRAVRTLAAAFADYPATRHTVDPDRHIERVTELQELFLTRVGLDIGKVWVADDGAAVAVWTTPESVEAGAVFAEIGPRMAELSGSRLAAQQQMEGLLAPHRPKEPAWFLATVGVSPDHQGKGLGSAVVLPGVEAAERAGVPAFLETSAPRNLPFYERLGFTVTADVEVPEGPRTWCMTRKPGA
modifications: Synthetic Immune Receptor (SIR)
Consider B1, for which the “NFAT-GFP ASSAY Positive Cell lines” value (coculture with HL2-3 cells) is “HL2-3 (+/−)”.

B2: 040716-B03 (protein)
chain: MALPVTALLLPLALLLHAARPLEGKPIPNPLLGLDSTGSGEDLKNVFPPEVAVFEPSKAEIAHTQKATLVCLATGFYPDHVELSWWVNGKEVHSGVCTDPQPLKEQPALNDSRYCLSSRLRVSATFWQNPRNHFRCQVQFYGLSENDEWTQDRAKPVTQIVSAEAWGRADCGITSASYHQGVLSATILYEILLGKATLYAVLVSALVLMAMVKRKDSRGRAKRSGSGATNFSLLKQAGDVEENPGPTSMALPVTALLLPLALLLHAARPDEFDVQLVESGGGLVQPGGSLRLSCAASGSIGGLNAMAWYRQAPGKERELVAGIFGVGSTRYADSVKGRFTISRDNSKNTVYLQMNSLRPEDTAVYYCRMSSVTRGSSDYWGQGTLVTVSSLEGGGGSGGGGSGGGGSGSGGSGSGGSGSGGSGSGGSFEVQLVESGGSLVQPGGSLRLSCAASGFTFDDYAMSWVRQVPGKGLEWVSSINWSGTHTDYADSVKGRFTISRNNANNTLYLQMNSLKSEDTAVYYCAKNWRDAGTTWFEKSGSAGQGTQVTVSSTREQKLISEEDGSGIQNPDPAVYQLRDSKSSDKSVCLFTDFDSQTNVSQSKDSDVYITDKCVLDMRSMDFKSNSAVAWSNKSDFACANAFNNSIIPEDTFFPSSDVPCDVKLVEKSFETDTNLNFQNLSVIGFRILLLKVAGFNLLMTLRLWSSRAKRSGSGVKQTLNFDLLKLAGDVESNPGPSRGHMTEYKPTVRLATRDDVPRAVRTLAAAFADYPATRHTVDPDRHIERVTELQELFLTRVGLDIGKVWVADDGAAVAVWTTPESVEAGAVFAEIGPRMAELSGSRLAAQQQMEGLLAPHRPKEPAWFLATVGVSPDHQGKGLGSAVVLPGVEAAERAGVPAFLETSAPRNLPFYERLGFTVTADVEVPEGPRTWCMTRKPGA
modifications: Synthetic Immune Receptor (SIR)
For the molecule B2, the “NFAT-GFP ASSAY Positive Cell lines” value by setting is: (coculture with A431 cells) “(+), A431 (+)”; (coculture with MCF7 cells) “MCF7 (+/−), SKBR3”; (coculture with SKBR3 cells) “(+), A431 (+)”.

B3: 060717-L04 (protein)
chain: MALPVTALLLPLALLLHAARPQSVVTQPASVSGSPGQSITISCTGTSSDVGGYNYVSWYQQHPGKAPKLMIYDVSKRPSGVSNRFSGSKSGNTASLTISGLQAEDEADYYCSSYTSSSTLVFGGGTKLTVLGLEIQNPDPAVYQLRDSKSSDKSVCLFTDFDSQTNVSQSKDSDVYITDKCVLDMRSMDFKSNSAVAWSNKSDFACANAFNNSIIPEDTFFPSSDVPCDVKLVEKSFETDTNLNFQNLSVIGFRILLLKVAGFNLLMTLRLWSSRAKRSGSGVKQTLNFDLLKLAGDVESNPGPTSMDWIWRILFLVGAATGAHSFEEVQLVESGGAFVQPGGSLRLSCAASGFTFSSYAMTWVRQAPGKGLEWVSTISGRGRSTFYADSVKGRFTISRDNSKNTLYLQMNSLRAEDTAVYYCARYYHAGAFDLWGQGTLVTVSSTREDLKNVFPPEVAVFEPSKAEIAHTQKATLVCLATGFYPDHVELSWWVNGKEVHSGVCTDPQPLKEQPALNDSRYCLSSRLRVSATFWQNPRNHFRCQVQFYGLSENDEWTQDRAKPVTQIVSAEAWGRADCGITSASYHQGVLSATILYEILLGKATLYAVLVSALVLMAMVKRKDSRGRAKRSGSGATNFSLLKQAGDVEENPGPSRGHMTEYKPTVRLATRDDVPRAVRTLAAAFADYPATRHTVDPDRHIERVTELQELFLTRVGLDIGKVWVADDGAAVAVWTTPESVEAGAVFAEIGPRMAELSGSRLAAQQQMEGLLAPHRPKEPAWFLATVGVSPDHQGKGLGSAVVLPGVEAAERAGVPAFLETSAPRNLPFYERLGFTVTADVEVPEGPRTWCMTRKPGA
With B3, the “NFAT-GFP ASSAY Positive Cell lines” value runs as follows: (coculture with L363 cells) 2+; (coculture with U266 cells) “+”.

B4: 040716-H06 (protein)
chain: MALPVTALLLPLALLLHAARPDEFDVQLVESGGGLVQPGGSLRLSCAASGSIGGLNAMAWYRQAPGKERELVAGIFGVGSTRYADSVKGRFTISRDNSKNTVYLQMNSLRPEDTAVYYCRMSSVTRGSSDYWGQGTLVTVSSLEGGGGSGGGGSGGGGSGSGGSGSGGSGSGGSGSGGSFEVQLVESGGSLVQPGGSLRLSCAASGFTFDDYAMSWVRQVPGKGLEWVSSINWSGTHTDYADSVKGRFTISRNNANNTLYLQMNSLKSEDTAVYYCAKNWRDAGTTWFEKSGSAGQGTQVTVSSTREQKLISEEDGSGIQNPDPAVYQLRDSKSSDKSVCLFTDFDSQTNVSQSKDSDVYITDKCVLDMRSMDFKSNSAVAWSNKSDFACANAFNNSIIPEDTFFPSSDVPCDVKLVEKSFETDTNLNFQNLSVIGFRILLLKVAGFNLLMTLRLWSSRAKRSGSGVKQTLNFDLLKLAGDVESNPGPSRGHMTEYKPTVRLATRDDVPRAVRTLAAAFADYPATRHTVDPDRHIERVTELQELFLTRVGLDIGKVWVADDGAAVAVWTTPESVEAGAVFAEIGPRMAELSGSRLAAQQQMEGLLAPHRPKEPAWFLATVGVSPDHQGKGLGSAVVLPGVEAAERAGVPAFLETSAPRNLPFYERLGFTVTADVEVPEGPRTWCMTRKPGA
modifications: Polynucleotide encoding a Synthetic Immune Receptor (SIR)
Turning to B4, the “NFAT-GFP ASSAY Positive Cell lines” value reads like this: (coculture with MCF7 cells) “MCF7 (+), SKBR3 (+)”; (coculture with SKBR3 cells) “MCF7 (+), SKBR3 (+)”.
